In patent US20200283521A1 (GRANULAR THERAPEUTICS, published 2020):

T1: hCMET-Fc (The natural ectodomain is cleaved by furin after residue 307 into disulfide-linked alpha and beta chains. It is given here as one continuous stretch.)
T1 construct: member of the panel m9
T1 chain: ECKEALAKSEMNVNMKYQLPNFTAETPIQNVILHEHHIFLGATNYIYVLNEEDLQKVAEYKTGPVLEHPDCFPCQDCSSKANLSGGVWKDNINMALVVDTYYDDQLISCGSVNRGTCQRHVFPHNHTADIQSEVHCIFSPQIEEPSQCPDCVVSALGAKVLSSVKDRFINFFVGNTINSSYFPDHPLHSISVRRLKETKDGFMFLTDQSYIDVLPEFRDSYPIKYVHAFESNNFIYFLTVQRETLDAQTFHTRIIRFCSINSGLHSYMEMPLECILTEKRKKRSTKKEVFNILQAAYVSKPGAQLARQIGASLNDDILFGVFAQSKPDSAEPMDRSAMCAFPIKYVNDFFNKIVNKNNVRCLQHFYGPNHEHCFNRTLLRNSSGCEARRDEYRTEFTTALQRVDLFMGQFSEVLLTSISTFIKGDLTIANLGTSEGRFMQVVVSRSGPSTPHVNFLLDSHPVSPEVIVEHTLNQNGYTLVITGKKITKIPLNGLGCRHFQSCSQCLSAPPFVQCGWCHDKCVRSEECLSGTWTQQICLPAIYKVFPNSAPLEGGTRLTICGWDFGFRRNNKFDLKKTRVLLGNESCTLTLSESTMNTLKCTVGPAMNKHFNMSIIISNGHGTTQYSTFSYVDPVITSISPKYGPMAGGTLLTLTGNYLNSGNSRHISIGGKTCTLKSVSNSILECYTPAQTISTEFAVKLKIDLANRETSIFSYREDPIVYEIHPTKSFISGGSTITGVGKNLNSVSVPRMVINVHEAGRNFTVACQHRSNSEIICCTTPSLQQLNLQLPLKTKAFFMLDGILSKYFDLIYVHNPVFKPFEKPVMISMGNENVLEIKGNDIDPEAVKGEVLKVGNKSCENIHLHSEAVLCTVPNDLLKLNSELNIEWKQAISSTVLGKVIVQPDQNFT

T2: TGM2 (human, UniProt P21980)
T2 construct: expressed in transfected HEK293 cells
T2 sequence (looked up): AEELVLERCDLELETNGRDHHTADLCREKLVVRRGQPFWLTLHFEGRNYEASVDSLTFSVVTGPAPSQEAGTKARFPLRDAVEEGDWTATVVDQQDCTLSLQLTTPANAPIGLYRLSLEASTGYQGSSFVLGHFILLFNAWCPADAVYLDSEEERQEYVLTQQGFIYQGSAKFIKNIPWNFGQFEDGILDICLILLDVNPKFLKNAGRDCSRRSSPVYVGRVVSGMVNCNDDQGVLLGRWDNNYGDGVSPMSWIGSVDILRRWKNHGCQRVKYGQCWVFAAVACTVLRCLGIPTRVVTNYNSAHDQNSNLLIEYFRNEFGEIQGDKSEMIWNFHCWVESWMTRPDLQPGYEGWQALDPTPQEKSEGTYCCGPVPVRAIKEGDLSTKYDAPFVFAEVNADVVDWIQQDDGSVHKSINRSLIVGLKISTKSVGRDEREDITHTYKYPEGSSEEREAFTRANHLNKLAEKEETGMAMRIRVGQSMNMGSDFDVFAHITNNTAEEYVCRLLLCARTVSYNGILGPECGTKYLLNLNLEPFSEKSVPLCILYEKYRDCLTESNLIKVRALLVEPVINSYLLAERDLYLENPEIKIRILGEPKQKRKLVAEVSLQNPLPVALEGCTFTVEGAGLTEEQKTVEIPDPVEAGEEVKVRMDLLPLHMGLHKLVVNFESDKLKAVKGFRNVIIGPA

T3: MS4A1 (human, UniProt P11836)
T3 construct: expressed in transfected HEK293 cells; also called CD20
T3 sequence (looked up): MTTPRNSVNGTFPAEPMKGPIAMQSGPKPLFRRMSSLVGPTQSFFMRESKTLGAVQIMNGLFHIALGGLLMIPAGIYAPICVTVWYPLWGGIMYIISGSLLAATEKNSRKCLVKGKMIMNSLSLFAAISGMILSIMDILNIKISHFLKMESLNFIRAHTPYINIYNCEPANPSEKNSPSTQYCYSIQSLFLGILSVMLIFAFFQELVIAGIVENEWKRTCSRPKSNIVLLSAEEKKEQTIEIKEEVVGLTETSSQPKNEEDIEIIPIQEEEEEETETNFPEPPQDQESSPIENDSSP

T4: ZG16B (human, UniProt Q96DA0)
T4 construct: expressed in transfected HEK293 cells
T4 sequence (looked up): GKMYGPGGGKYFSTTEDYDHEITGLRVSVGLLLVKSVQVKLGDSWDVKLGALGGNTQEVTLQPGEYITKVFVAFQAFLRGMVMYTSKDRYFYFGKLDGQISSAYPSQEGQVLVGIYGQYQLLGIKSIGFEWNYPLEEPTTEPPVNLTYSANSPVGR


What was measured:
[1] = target: T1, hCMET-Fc; experiment: direct ELISA on coated protein, IgG1
[2] = target: T2, TGM2; experiment: cell array, transfected fixed HEK293 cells
Description: (§1) Transfection of all plasmids was confirmed by screening for the co-encoded marker ZS green (FIG. 13A).
(§2) Primary hits (duplicate spots) were identified by analysing fluorescence (AF647 and ZsGreenl) on ImageQuant. Vectors encoding all hits were sequenced to confirm their correct identities. […] Slides were analysed as above.

[3] = target: T5, COL23A1 (human, UniProt Q86Y22); experiment: cell array, transfected fixed HEK293 cells
T5 construct: expressed in transfected HEK293 cells
Description: as §1, §2

[4] = target: T3, MS4A1; experiment: cell array, transfected fixed HEK293 cells
Description: as §1, §2

[5] = target: T4, ZG16B; experiment: cell array, transfected fixed HEK293 cells
Description: as §1, §2

[6] = target: T6, MSN (human, UniProt P26038); experiment: cell array, transfected fixed HEK293 cells
T6 construct: expressed in transfected HEK293 cells
T6 sequence (P26038 2-577 limits assumed): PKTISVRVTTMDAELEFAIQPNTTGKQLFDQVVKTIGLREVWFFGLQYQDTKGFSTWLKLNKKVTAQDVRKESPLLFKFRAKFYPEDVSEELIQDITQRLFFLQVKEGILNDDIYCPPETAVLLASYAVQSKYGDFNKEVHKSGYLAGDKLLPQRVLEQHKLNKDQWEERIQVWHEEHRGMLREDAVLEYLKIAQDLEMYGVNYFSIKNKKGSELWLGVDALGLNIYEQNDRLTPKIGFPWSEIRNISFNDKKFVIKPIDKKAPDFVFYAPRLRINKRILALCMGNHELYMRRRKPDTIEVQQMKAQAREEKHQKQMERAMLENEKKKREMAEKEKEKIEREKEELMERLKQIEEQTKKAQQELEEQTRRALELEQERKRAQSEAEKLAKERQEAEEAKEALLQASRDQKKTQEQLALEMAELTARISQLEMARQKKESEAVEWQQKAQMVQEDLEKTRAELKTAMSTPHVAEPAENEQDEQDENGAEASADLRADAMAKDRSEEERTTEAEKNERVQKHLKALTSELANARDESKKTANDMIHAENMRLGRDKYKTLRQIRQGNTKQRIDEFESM
Description: as §1, §2

T5 sequence (Q86Y22 whole entry): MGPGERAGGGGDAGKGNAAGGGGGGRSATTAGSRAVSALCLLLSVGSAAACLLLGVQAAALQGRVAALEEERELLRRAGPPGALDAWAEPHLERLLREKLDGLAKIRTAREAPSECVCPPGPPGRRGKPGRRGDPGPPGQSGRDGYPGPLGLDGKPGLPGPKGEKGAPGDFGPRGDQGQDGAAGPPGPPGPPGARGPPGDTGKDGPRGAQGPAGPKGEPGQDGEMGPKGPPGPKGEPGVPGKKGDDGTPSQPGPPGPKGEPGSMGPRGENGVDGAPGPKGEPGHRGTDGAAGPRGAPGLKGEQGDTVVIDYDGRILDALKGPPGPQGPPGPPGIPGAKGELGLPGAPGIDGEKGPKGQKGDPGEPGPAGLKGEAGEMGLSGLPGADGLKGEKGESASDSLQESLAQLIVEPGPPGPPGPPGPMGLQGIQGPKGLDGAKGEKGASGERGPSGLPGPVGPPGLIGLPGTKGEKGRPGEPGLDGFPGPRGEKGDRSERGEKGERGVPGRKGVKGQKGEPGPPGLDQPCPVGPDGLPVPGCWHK

| binding result [1] | binding result [2] | binding result [3] | binding result [4] | binding result [5] | binding result [6] | Binder |
| --- | --- | --- | --- | --- | --- | --- |
| no binding (tested: 1 µg/ml) | – | – | – | – | – | MH5, human IgG1 (antibody, V domains shown, IgG1; also called C-KIT-MH5; C-KIT-MHS) VH: QVQLVQSGAEVKKPGASVKVSCKASGYTFTDYYMNWVRQAPGQGLEWMGRIYPGSGNTYYAQKFQGRVTMTRDTSTSTVYMELSSLRSEDTAVYYCARGVYYYDYWGQGTLVTVSS VL: DIQMTQSPSSLSASVGDRVTITCRASQGIRTNLAWFQQKPGKAPKSLIYSASSLQSGVPSRFSGSGSGTDFTLTISSLQPEDFATYYCQQYANYPRTFGGGTKVEIK |
| – | no binding (tested: 2 µg/ml) | no binding (tested: 2 µg/ml) | no binding (tested: 2 µg/ml) | no binding (tested: 2 µg/ml) | no binding (tested: 2 µg/ml) | MH1, human IgG1 (antibody, V domains shown, IgG1; also called IgG1-MH1) VH: QVQLVQSGAEVKKPGASVKVSCKASGYTFTDYYMNWVRQAPGQGLEWMGRIYPGSGNTYYAQKFQGRVTMTRDTSTSTVYMELSSLRSEDTAVYYCARGVYYYDYWGQGTLVTVSS VL: DIQMTQSPSSLSASVGDRVTITCRASQGIRTNLAWFQQKPGKAPKSLIYAASSLQSGVPSRFSGSGSGTDFTLTISSLQPEDFATYYCQQYNSYPRTFGGGTKVEIK |
